Laboratory results: patent US10689628B2, “Method of making variant LovD polypeptides” (THE REGENTS OF THE UNIVERSITY OF CALIFORNIA, priority 2009, dated 2020)

Key:
[1] = target: T1, LovD (Aspergillus terreus, UniProt Q9Y7D1); assay: LovD transacylation of monacolin J with acyl-thioesters / acyl-CoAs (conversion by HPLC); assay type: biochemical; details: 10 μM LovD, 1 mM monacolin J, 4 mM acyl-thioester, 50 mM HEPES, pH 7.9, 25° C., 10 hours; HPLC 238 nm
T1 construct: made in house; host or cells: E. coli BL21(DE3)/pAW31
Protocol: Assays were performed with 1 mM monacolin J, 4 mM acyl-CoA and 10 uM LovD for 10 hours.

[2] = system: Neurospora crassa; assay: Agar diffusion growth inhibition of Neurospora crassa by statins
Protocol: N. crassa was grown on SDA slants for 10 days and spores were harvested with 1% Tween-80. 100 ml of molten SDA was seeded with 0.3-0.5×10^8 spores and poured into a 230×230 mm plate. Colonies from mutation library were cultured in 96 well plates containing 250 μl LB medium (with 35 mg/L kanamycin). The cells were grown at 37° C. to saturation and transferred to duplicated plates. Protein expression was induced with 0.1 mM IPTG at OD600 of 0.5 and the expression was performed at 25° C. for 16 h. 5 mM MJA and 10 mM DMB-SMMP were added to initiate the reaction. After a certain reaction time (45 mins to 4 hours depending on the activity of the parent), cells were removed with centrifugation (2,000 g, 4° C., 5 min). The amount of supernatant spotted on the SDA plate was typically 1-3 μl. The plates were incubated at 30° C. for 16˜18 hours.
N. crassa was grown on SDA slants for 10 days and spores were harvested with 1% Tween-80. 100 ml of molten SDA was seeded with 0.3-0.5×10^8 spores and poured into a 230×230 mm plate. Colonies from mutation library were cultured in 96 well plates containing 250 μl LB medium (with 35 mg/L kanamycin). The cells were grown at 37° C. to saturation and transferred to duplicated plates. Protein expression was induced with 0.1 mM IPTG at OD600 of 0.5 and the expression was performed at 25° C. for 16 h. 5 mM MJA and 10 mM DMB-SMMP were added to initiate the reaction. […]

[3] = system: E. coli YT2; assay: Whole-cell biocatalysis activity of LovD G0 and directed-evolution mutants (SVA synthesis); details: 25° C.
Protocol: Wild type LovD and all mutants were cultured in parallel for comparison. A single colony of the freshly transformed YT2 competent cells was used to inoculate a 5 mL LB culture supplemented with 35 mg/L kanamycin. Following overnight growth at 37° C., 100 μl of the culture was inoculated into 50 mL LB medium supplemented with 35 mg/L kanamycin. When OD600 reached 0.4˜0.6, 0.1 mM IPTG was added to the cultures and expression of all LovD variants was performed at 25° C. for 16 hr. To mimic the high density fermentation conditions, the cells were then concentrated 10-fold before addition of substrates. A 10 ml aliquot of each culture was collected by centrifugation (4° C., 2,000 g, 10 min). The cell pellet was gently resuspended in 1 ml of the medium supernatant, followed by addition of 70 μl of MJA (300 mM stock) to a final concentration of 15 mM. The concentrated culture was then divided into seven 200 μl aliquots and 1 μl of pure DMB-SMMP was added to each sample to a final concentration of 20 mM. The small cultures were then shaken at 300 rpm at 25° C. At each time point, a complete extraction of one culture aliquot was performed by adding 10 μl of 20% SDS for cells lysis, followed by extraction with 500 μl ethyl acetate containing 1% trifluoroacetic acid TFA. The organic phase was removed, evaporated, and redissolved in 500 μl acetonitrile for HPLC analysis. The whole-cell activity was determined by fitting the linear regions of the conversion time course plot.
Parent LovD G0 and all mutants were cultured in parallel for comparison. A single colony of the freshly transformed YT2 competent cells was used to inoculate a 5 mL LB culture supplemented with 35 mg/L kanamycin. Following overnight growth at 37° C., 100 μl of the culture was inoculated into 50 mL LB medium supplemented with 35 mg/L kanamycin. When OD600 reached 0.4˜0.6, 0.1 mM IPTG was added to the cultures and expression of all LovD variants was performed at 25° C. for 16 hr. To mimic the high density fermentation conditions, the cells were then concentrated 10-fold before addition of substrates. A 10 ml aliquot of each culture was collected by centrifugation (4° C., 2,000 g, 10 min). The cell pellet was gently resuspended in 1 ml of the medium supernatant, followed by addition of 70 μl of MJA (300 mM stock) to a final concentration of 15 mM. The concentrated culture was then divided into seven 200 μl aliquots and 1 μl of pure DMB-SMMP was added to each sample to a final concentration of 20 mM. The small cultures were then shaken at 300 rpm at 25° C. At each time point, a complete extraction of one culture aliquot was performed by adding 10 μl of 20% SDS for cells lysis, followed by extraction with 500 μl ethyl acetate containing 1% trifluoroacetic acid TFA. The organic phase was removed, evaporated, and redissolved in 500 μl acetonitrile for HPLC analysis. The whole-cell activity was determined by fitting the linear regions of the conversion time course plot.

[4] = Soluble LovD protein expression level (Ni-NTA purification, Bradford assay)
Protocol: Each mutant was transformed into E. coli YT2 strain and selected by Kanamycin (Kan). The transformant was grown in 500 ml LB-Kan media at 37° C. to OD600 0.4˜0.6, then 0.1 mM IPTG was added to induce protein expression at 20° C. for 16 hours. Cells were collected by centrifugation, resuspended in 30 ml Buffer A (50 mM Tris-HCl, pH 8.0, 2 mM 2 mM EDTA), and lysed by sonication. Cell debris and insoluble proteins were removed by centrifugation (16,000 g, 4° C., 1 h). To the cleared lysate, 2 ml of Ni-NTA resin (Qiagen) was added. Each mutant was purified using a step gradient of buffer A with increasing concentration of imidazole. Pure (>95%) LovD proteins were eluted in buffer A containing 250 mM imidazole, and then buffer exchanged into buffer A without imidazole. Glycerol was added to a final concentration of 10%, the proteins were aliquoted, and flash frozen.
All nine mutants and the wild type LovD proteins were purified at the same time and under the same conditions. The proteins were purified from 50 ml LB culture. LovD was eluted in the last fraction which contains 250 mM imidazole. The concentration of the last fraction was determined by Bradford Assay using BSA as the standard.
Each expression plasmid encoding LovD mutant was transformed into E. coli BL21(DE3). The transformant was cultured in 50 mL LB medium containing 35 mg/L Kan at 37° C. to optical density (OD600) value of 0.4˜0.6. Protein expression was induced with 0.1 mM IPTG and the subsequent expression was performed at 25° C. for 16 h. Cells were collected by centrifugation (2,000 g, 4° C., 15 min), resuspended in 7 mL Buffer A (50 mM Tris-HCl, pH 8.0, 2 mM DTT, 2 mM EDTA), and lysed by sonication. Cell debris and insoluble proteins were removed by centrifugation (20,000 g, 4° C., 1 h). To the cleared cell lysate, 0.5 mL of Ni-NTA resin (Qiagen, Valencia, Calif.) was added to each sample. […] The protein concentrations were qualitatively assessed by SDS-PAGE and quantitatively determined by the Bradford protein assay using bovine serum albumin (BSA) as the standard.

[5] = system: MJ acid and DMB-S-MMP; assay: Kinetic assay of LovD wild type and mutants towards MJ acid and DMB-S-MMP; assay type: biochemical
Protocol: Dimethyl sulfoxide (DMSO) was added to a final concentration of 10% to facilitate the solubilization of DMB-S-MMP. To compare the turnover rate of all mutants and the wild type protein, the MJ acid concentration was set at 1 mM and the DMB-S-MMP was set at 2 mM, the protein concentration was fixed at 10 uM, after the reaction was performed at room temperature for 2 hours, the reaction was quenched by adding EA/2% TFA. The organic phase was dried and redissolved in ACN for HPLC analysis.
The concentration of DMB-S-MMP was fixed at 2 mM and MJ acid concentration was varied from 0.25 mM to 2.0 mM. […] For the rest LovD mutant proteins, we only checked the conversion of one time point.
To obtain KM values for MJA and kcat, the DMB-SMMP concentration was fixed at 2 mM, while the concentration of MJA was varied from 0.25 to 5 mM. To obtain KM values for DMB-SMMP and kcat, the MJA concentration was fixed at 2 mM, while the concentration of DMB-SMMP was varied from 0.5 to 5 mM. Dimethyl sulfoxide (DMSO) was added to a final concentration of 10% to facilitate the solubilization of DMB-SMMP. At different time points of the kinetic assay, an aliquot of the reaction mixture was removed, quenched with 1% TFA and extracted with EA containing 1% acetic acid. The organic phase was separated, dried, resolubilized by acetonitrile (ACN) and analyzed by a Beckman Gold HPLC using a reverse phase C18 column (Alltech Apollo 5μ, 150 mm×4.6 mm) and a linear gradient: 60% ACN in water (0.1% trifluoroacetic acid (TFA)) to 95% ACN in water (0.1% TFA) for 10 min, 1 mL/min. Conversion of MJA to SVA was measured by integration of the peaks at 238 nm.

T1 sequence (Q9Y7D1 whole entry): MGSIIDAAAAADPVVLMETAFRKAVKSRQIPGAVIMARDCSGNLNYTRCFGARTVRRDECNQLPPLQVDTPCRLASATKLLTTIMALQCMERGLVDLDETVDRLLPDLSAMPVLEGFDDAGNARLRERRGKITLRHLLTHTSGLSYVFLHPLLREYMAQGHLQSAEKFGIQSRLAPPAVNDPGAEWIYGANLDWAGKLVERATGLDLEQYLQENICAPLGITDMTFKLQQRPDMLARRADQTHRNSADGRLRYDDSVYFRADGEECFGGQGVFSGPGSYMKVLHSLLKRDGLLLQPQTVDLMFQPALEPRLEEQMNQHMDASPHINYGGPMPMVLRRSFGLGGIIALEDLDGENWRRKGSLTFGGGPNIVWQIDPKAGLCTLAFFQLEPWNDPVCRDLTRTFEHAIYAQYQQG

## CCCC(=O)SCC(=O)OC
[1]
  Conversion (percent monacolin J converted to the corresponding lovastatin analog): 92%, 6.8

## COC(=O)CSC(=O)c1ccccc1
[1]
  Conversion (percent monacolin J converted to the corresponding lovastatin analog): 70%, 7.6

## C[C@H]1C=C2C=C[C@H](C)[C@H](CC[C@@H](O)C[C@@H](O)CC(=O)O)[C@H]2[C@@H](O)C1 [MJA, monacolin J acid]
[2]
  quantity needed to inhibit the growth of N. crassa (in words): hundred milligram quantities

## CCC(C)(C)C(=O)O[C@H]1C[C@@H](C)C=C2C=C[C@H](C)[C@H](CC[C@@H](O)C[C@@H](O)CC(=O)O)[C@H]21 [SVA, simvastatin acid]
[2]
  quantity needed to inhibit the growth of N. crassa (in words): sub-microgram quantities

## CCC(C)(C)C(=O)SCC(=O)OC [drawing 22]
[1]
  Conversion (percent monacolin J converted to the corresponding lovastatin analog): 17%, 8.5

B1: GX12: LovD mutant with six mutations: C40A, C60N, A86V, D12G, G275S and A190T (protein, UniProt Q9Y7D1 1-413, looked up, variant C40A C60N A86V D12G G275S A190T)
Monacolin J acid …: MGSIIDAAAAAGPVVLMETAFRKAVKSRQIPGAVIMARDASGNLNYTRCFGARTVRRDENNQLPPLQVDTPCRLASATKLLTTIMVLQCMERGLVDLDETVDRLLPDLSAMPVLEGFDDAGNARLRERRGKITLRHLLTHTSGLSYVFLHPLLREYMAQGHLQSAEKFGIQSRLAPPAVNDPGAEWIYGTNLDWAGKLVERATGLDLEQYLQENICAPLGITDMTFKLQQRPDMLARRADQTHRNSADGRLRYDDSVYFRADGEECFGGQGVFSSPGSYMKVLHSLLKRDGLLLQPQTVDLMFQPALEPRLEEQMNQHMDASPHINYGGPMPMVLRRSFGLGGIIALEDLDGENWRRKGSLTFGGGPNIVWQIDPKAGLCTLAFFQLEPWNDPVCRDLTRTFEHAIYAQYQQG
[3]
  improvement in whole-cell activity compared to wild type enzyme: 7.5 fold
[4]
  improvement of the soluble expression level compared to wild type enzyme: 2.3 fold
[5]
  improvement of the kcat/Km value compared to wild type enzyme: 2.83 fold

B2: GX27: LovD mutant with eight mutations: C40A, C60N, A86V, D12G, G275S, A190T, H161Y (printed 11161Y) and K26E (protein, UniProt Q9Y7D1 1-413, looked up, variant C40A C60N A86V D12G G275S A190T H161Y K26E)
Monacolin J acid …: MGSIIDAAAAAGPVVLMETAFRKAVESRQIPGAVIMARDASGNLNYTRCFGARTVRRDENNQLPPLQVDTPCRLASATKLLTTIMVLQCMERGLVDLDETVDRLLPDLSAMPVLEGFDDAGNARLRERRGKITLRHLLTHTSGLSYVFLHPLLREYMAQGYLQSAEKFGIQSRLAPPAVNDPGAEWIYGTNLDWAGKLVERATGLDLEQYLQENICAPLGITDMTFKLQQRPDMLARRADQTHRNSADGRLRYDDSVYFRADGEECFGGQGVFSSPGSYMKVLHSLLKRDGLLLQPQTVDLMFQPALEPRLEEQMNQHMDASPHINYGGPMPMVLRRSFGLGGIIALEDLDGENWRRKGSLTFGGGPNIVWQIDPKAGLCTLAFFQLEPWNDPVCRDLTRTFEHAIYAQYQQG
[3]
  improvement in whole-cell activity compared to wild type enzyme: 11 fold
[4]
  improvement of the soluble expression level compared to wild type enzyme: 4 fold
[5]
  improvement of the kcat/Km value compared to wild type enzyme: 3.45 fold
